Legend:
[1] = target: Human γ-thrombin (human) (UniProt P00734); test: fluorescence polarization, fluoresceinated peptide titrated with γ-thrombin
[2] = target: Human α-thrombin (human) (UniProt P00734); test: fluorescence polarization, 2 nM fluoresceinated peptide titrated with α-thrombin
[3] = target: Human α-thrombin (human) (UniProt P00734); test: fluorescence polarization competition against 2 nM fluoresceinated γ′408-427 phosphorylated peptide, 2 µM α-thrombin

fluoresceinated γ′408-427 peptide, …-Y(PO3)-DSL-Y(PO3)-PEDDL, sequence (P02679 434-453): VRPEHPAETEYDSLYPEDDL

Row | Kd [1] | Kd [2] | Ki [3] | Substance
1 | 610 nM | 430 nM | – | fluoresceinated γ′408-427 peptide, …-Y(PO3)-DSL-Y(PO3)-PEDDL
2 | – | – | 520 nM | γ′408-427 peptide, doubly phosphorylated, unlabeled, …-Y(PO3)-DSL-Y(PO3)-PEDDL

From patent publication US20040248807A1
